Measurements taken from paper PMC7942993.
Where a chain is given by its changes, count along the chain named.

How the values were obtained:
Test in all cases: EMSA
Conditions in all cases: EMSA: 40 mM HEPES pH 7.9, 300 mM KCl, 10% glycerol, 8% Ficoll, 2 mM EDTA, 0.2 mM MgCl2, 1 mM DTT, 600 ug BSA, 30 ug poly(dI-dC), 30 ul, 20 min, room …
[1] = biological target: T1, His-TRF1 WT (Homo sapiens) (UniProt P54274)
T1 sequence: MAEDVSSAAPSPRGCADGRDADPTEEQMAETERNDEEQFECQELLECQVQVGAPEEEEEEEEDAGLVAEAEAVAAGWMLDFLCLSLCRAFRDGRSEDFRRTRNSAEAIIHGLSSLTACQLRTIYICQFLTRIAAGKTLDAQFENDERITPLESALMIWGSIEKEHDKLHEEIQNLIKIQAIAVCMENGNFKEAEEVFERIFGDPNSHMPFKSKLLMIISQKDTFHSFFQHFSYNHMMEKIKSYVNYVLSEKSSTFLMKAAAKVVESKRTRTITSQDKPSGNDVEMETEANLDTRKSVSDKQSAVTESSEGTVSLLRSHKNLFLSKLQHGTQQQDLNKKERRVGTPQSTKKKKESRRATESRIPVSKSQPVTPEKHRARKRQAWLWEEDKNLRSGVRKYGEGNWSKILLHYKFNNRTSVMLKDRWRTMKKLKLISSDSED

[2] = biological target: T2, His-TRF1 T273D T273D (Homo sapiens) (UniProt P54274)
T2 sequence: T1 sequence with T273D

[3] = biological target: T3, His-TRF1 T358D T358D (Homo sapiens) (UniProt P54274)
T3 sequence: T1 sequence with T358D

Question: Which binding signal (fold of WT (reference)) [1] does the source give for “GGGTTAGGGTTAGGGTTAGGGTTAGGGTTAGGGTTAGGGTTAGGGCCCCTC (double strand) [ds (TTAGGG)7 telomeric probe]” here?
Answer: 1

Question: And the binding signal [2]?
Answer: > 1 fold of WT

Question: And the binding signal [3]?
Answer: > 1 fold of WT
